The results in this text go back to publication PMC10657180.

The target of assay [1] is neddylated CUL1-RBX1 with the FBXW7-SKP1 substrate receptor (human) (UniProt Q13616).
The target of assay [2] is neddylated CUL2-RBX1 in complex with the KLHDC2-ELONGIN B/C substrate receptor (human) (UniProt Q13617).
The target of assay [3] is neddylated CUL2-RBX1 in complex with the VHL-ELONGIN B/C substrate receptor (human) (UniProt Q13617).

ARIH1, sequence (Q9Y4X5 whole entry): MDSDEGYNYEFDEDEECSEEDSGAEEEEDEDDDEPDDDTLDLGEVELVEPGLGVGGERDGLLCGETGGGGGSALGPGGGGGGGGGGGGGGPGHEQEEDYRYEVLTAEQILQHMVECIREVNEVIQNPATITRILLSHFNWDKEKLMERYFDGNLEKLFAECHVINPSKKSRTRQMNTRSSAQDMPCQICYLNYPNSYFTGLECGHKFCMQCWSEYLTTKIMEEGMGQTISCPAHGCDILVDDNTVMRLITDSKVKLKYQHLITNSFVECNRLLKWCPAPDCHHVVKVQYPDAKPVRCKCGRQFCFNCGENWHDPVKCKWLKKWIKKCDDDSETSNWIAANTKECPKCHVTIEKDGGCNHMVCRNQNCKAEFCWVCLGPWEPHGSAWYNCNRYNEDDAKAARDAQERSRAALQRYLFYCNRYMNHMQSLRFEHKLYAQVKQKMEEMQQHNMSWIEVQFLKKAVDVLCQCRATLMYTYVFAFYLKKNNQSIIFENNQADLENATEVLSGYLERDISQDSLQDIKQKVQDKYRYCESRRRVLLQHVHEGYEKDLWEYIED

As to “A397D/K398I/A399V ARIH1 (from UniProt Q9Y4X5 1-557) (enzyme)”, in assay [1], the Km of ARIH1 for the CRL-substrate complex (single-encounter ubiquitylation, ARIH1 titrated, 10 s, Michaelis-Menten fit); peptide on the CRL: KR Lys 387 cycE was 1.12 µM; the Km of ARIH1 for the CRL-substrate complex (single-encounter ubiquitylation, ARIH1 titrated, 10 s, Michaelis-Menten fit); peptide on the CRL: KR Ser 387 cycE came to 1.19 µM; the Km of ARIH1 for the CRL-substrate complex (single-encounter ubiquitylation, ARIH1 titrated, 10 s, Michaelis-Menten fit); peptide on the CRL: Lys only cycE worked out at 0.544 µM.

“ARIH1 (from UniProt Q9Y4X5 1-557) (enzyme)”: in assay [2], the Km of ARIH1 for the CRL-substrate complex (single-encounter ubiquitylation without cold competitor peptide, ARIH1 titrated, 10 s, Michaelis-Menten fit); peptide on the CRL: Arg47 Arg48 SelK was 0.391 µM and the Km of ARIH1 for the CRL-substrate complex (single-encounter ubiquitylation without cold competitor peptide, ARIH1 titrated, 10 s, Michaelis-Menten fit); peptide on the CRL: Lys47 Arg48 SelK came out at 0.268 µM. In assay [3], the Km of ARIH1 for the CRL-substrate complex (single-encounter ubiquitylation, ARIH1 titrated, 10 s, Michaelis-Menten fit); peptide on the CRL: NSer Hif1α was 0.66 µM and the Km of ARIH1 for the CRL-substrate complex (single-encounter ubiquitylation, ARIH1 titrated, 10 s, Michaelis-Menten fit); peptide on the CRL: WT Hif1α is 0.403 µM.

As for “K342A/E343A ARIH1 (from UniProt Q9Y4X5 1-557) (enzyme)”, in assay [1], the Km of ARIH1 for the CRL-substrate complex (single-encounter ubiquitylation, ARIH1 titrated, 10 s, Michaelis-Menten fit); peptide on the CRL: KR Lys 387 cycE is 1.56 µM; the Km of ARIH1 for the CRL-substrate complex (single-encounter ubiquitylation, ARIH1 titrated, 10 s, Michaelis-Menten fit); peptide on the CRL: KR Ser 387 cycE was determined as 0.461 µM; the Km of ARIH1 for the CRL-substrate complex (single-encounter ubiquitylation, ARIH1 titrated, 10 s, Michaelis-Menten fit); peptide on the CRL: Lys only cycE is 1.22 µM.

For the substance “N358A ARIH1 (from UniProt Q9Y4X5 1-557) (enzyme)”, in assay [1], the Km of ARIH1 for the CRL-substrate complex (single-encounter ubiquitylation, ARIH1 titrated, 10 s, Michaelis-Menten fit); peptide on the CRL: KR Lys 387 cycE was found to be 0.874 µM; the Km of ARIH1 for the CRL-substrate complex (single-encounter ubiquitylation, ARIH1 titrated, 10 s, Michaelis-Menten fit); peptide on the CRL: KR Ser 387 cycE was found to be 1.04 µM; the Km of ARIH1 for the CRL-substrate complex (single-encounter ubiquitylation, ARIH1 titrated, 10 s, Michaelis-Menten fit); peptide on the CRL: Lys only cycE amounted to 0.98 µM.
